Test results: US20170267766A1 (PIERRE FABRE MEDICAMENT, published 2017)

Experiments:
[1] = target: T1, human IGF-1R (native, on cells) (human, UniProt P08069 31-1367); assay: cell-based or functional assay
[2] = target: T2, rhIR protein (R&D Systems, cat No 1544-IR/CF) (human, UniProt P06213-2 28-944); assay: ELISA, coated rhIR 1 ug/ml
T2 construct: extracellular domain; bought; also called rh Insulin R; recombinant human Insulin Receptor
Description: (§1) In addition three ELISA were performed (either before or after cloning) to study the binding of antibodies on the recombinant human (hIGF-1R) and murine (mIGF-1R) proteins, and on the recombinant human Insulin Receptor (hIR) protein. […] The plates were then blocked with PBS containing 0.5% gelatin (#22151, Serva Electrophoresis GmbH, Heidelberg, Germany) for 2 h at 37° C. Once the saturation buffer discarded by flicking plates, 100 μl of each supernatant dilution were added to the wells (either undiluted hybridoma supernatant either supernatant serial dilutions) and incubated for 1 h at 37° C. […] Then, ELISA plates were washed 3-times and the TMB (#UP664782, Uptima, Interchim, France) substrate is added. After a 10 min incubation time at room temperature, the reaction was stopped using 1 M sulfuric acid and the optical density at 450 nm is measured.

[3] = target: T3, monkey IGF-1R (on COS-7 cells) (African green monkey); assay: FACS on COS-7 cells, 4°C; inset table, axis log [M]
T3 construct: whole, on cells
Description: In order to evaluate the binding of anti-IGF-1R antibodies on monkey IGF-1R, the binding of both murine and chimeric anti-hIGF-1R antibodies was evaluated by FACS analyses on COS-7 cell line using increasing antibody concentrations. Cells (1×10⁶ cells/ml) were incubated with anti-IGF-1R antibodies for 20 minutes at 4° C. in FACS buffer (PBS, 0.1% BSA, 0.01% NaN₃). Then, cells were washed 3 times and incubated with the appropriate secondary antibody coupled with Alexa 488 before being incubated for 20 additional minutes at 4° C. in the dark and finally washed 3 times in FACS buffer. The binding of anti-IGF-1R antibodies was immediately evaluated on viable cells identified using propidium iodide (that stains dead cells). The binding EC₅₀ expressed in molarity (M) was calculated using a nonlinear regression analysis (GraphPad Prims 4.0).

[4] = target: T4, rmIGF-1R protein (R&D Systems, cat No 6630-GR/Fc) (murine, UniProt Q60751 31-936); assay: ELISA, coated rmIGF-1R (Table 8)
T4 construct: extracellular domain; bought; also called murine extracellular domain (ECD) of IGF-1R; not shown: Fc only implied by the catalogue number; not described
Description: as §1

[5] = target: T3, monkey IGF-1R (on COS-7 cells); assay: cell-based or functional assay
[6] = target: T1, human IGF-1R (native, on cells); assay: FACS, Tf hIGF1R+ cells, Ab 5 ug/ml
[7] = target: T1, human IGF-1R (native, on cells); assay: FACS on MCF-7 cells, 4°C; inset table, axis log [M]
Description: The binding properties of a series of anti-IGF-1R antibodies were evaluated by FACS analyses on the human MCF-7 breast adenocarcinoma cell line (ATCC#HTB-22) using increasing antibody concentrations. For that purpose, cells (1×10⁶ cells/ml) were incubated with anti-IGF-1R antibodies for 20 min. at 4° C. in FACS buffer (PBS, 0.1% BSA, 0.01% NaN₃). They were then washed 3 times and incubated with the appropriate secondary antibody coupled with Alexa 488 for 20 additional minutes at 4° C. in the dark before being washed 3 times in FACS buffer. The binding of anti-IGF-1R antibodies was immediately performed on viable cells which were identified using propidium iodide (that stains dead cells). The maximum of signal intensity obtained with each antibody was designed as Bₘₐₓ and expressed in mean of fluorescence intensity (MFI). The EC₅₀ of binding expressed in molarity (M) was calculated using a nonlinear regression analysis (GraphPad Prims 4.0).

[8] = target: T1, human IGF-1R (native, on cells); assay: cell-based or functional assay; remark: listed apart in the source
[9] = target: T1, human IGF-1R (native, on cells); assay: FACS, MCF7, 4°C, Ab 5 ug/ml
Description: Additionally an internalization assay was performed in order to select only internalizing antibodies. For this assay, the MCF7 tumor cell line was cultured in RMPI 1640 without phenol red with 1% L-glutamine and 10% of […] for 3 days before experiment. Cells were then detached using trypsin and 100 μl of a cell suspension at 4·10⁵ cell/ml are plated in 96-multiwell plates in RPMI1640 without phenol red with 1% L-glutamine and 5% FBS. After a 2 min centrifugation at 2000 rpm, cells were resupended in 50 μl of hybridoma supernatant or control antibody solutions (positive and isotype controls at 1 μg/ml). After a 20 min incubation time at 4° C., cells were centrifuged 2 min at 2000 rpm and resuspended in either cold (4° C.) or warm (37° C.) complete culture medium. Cells were then incubated for 2 hours either at 37° C. or at 4° C. Then cells were washed three times with FACS buffer. An Alexa 488-labeled goat anti-mouse IgG antibody was incubated for 20 minutes and cells were washed three times before FACS analysis on propidium iodide negative cell population.

[10] = target: T5, human insulin receptor (on cells) (human, UniProt P06213 28-1382); assay: FACS on hIR+ transfected cells, 4°C
T5 construct: whole, on cells; on stably transfected cells or on IM9 cells; also called hIR; IR
Description: (§2) In order to verify the absence of binding of both murine and chimeric antibodies on hIR, a stable cell line expressing the human IR was used. The recognition of human cell surface hIR by both murine and chimeric Ab was performed by FACS analyses. Increasing concentrations of either the murine or the chimeric mAbs were incubated on the hIR′ transfected cell line for 20 minutes at 4° C. in FACS buffer (PBS, 0.1% BSA, 0.01% NaN₃). Cells were then washed 3 times and incubated with the appropriate secondary antibody coupled with Alexa 488 before being incubated for 20 additional minutes at 4° C. in the dark and then washed 3 times in FACS buffer. The binding of anti-IGF-1R antibodies was immediately performed on viable cells which were identified using propidium iodide (that stains dead cells). The binding EC₅₀ expressed in molarity (M) was calculated using a nonlinear regression analysis (GraphPad Prims 4.0). […] The c9G4 was introduced as an irrelevant antibody (isotype control).

[11] = target: T1, human IGF-1R (native, on cells); assay: cell-based or functional assay; remark: listed apart in the source
[12] = target: T4, rmIGF-1R protein (R&D Systems, cat No …); assay: ELISA, coated rm IGF-1R, SNT 5 ug/ml
Description: as §1

[13] = target: T3, monkey IGF-1R (on COS-7 cells); assay: FACS, Cos-7 (monkey IGF1R+), Ab 5 ug/ml
[14] = target: T5, human insulin receptor (on cells); assay: FACS on IM-9 cells (express hIR), 4°C
Description: as §2
For this FACS analysis, the protocol was the same as the one described previously and murine anti-IGF-1R antibodies were used in order to prevent the cross reactivity of the secondary anti-human Ab (IM9 cells express human Ig on their cell surface).

T4 sequence (Q60751 31-936): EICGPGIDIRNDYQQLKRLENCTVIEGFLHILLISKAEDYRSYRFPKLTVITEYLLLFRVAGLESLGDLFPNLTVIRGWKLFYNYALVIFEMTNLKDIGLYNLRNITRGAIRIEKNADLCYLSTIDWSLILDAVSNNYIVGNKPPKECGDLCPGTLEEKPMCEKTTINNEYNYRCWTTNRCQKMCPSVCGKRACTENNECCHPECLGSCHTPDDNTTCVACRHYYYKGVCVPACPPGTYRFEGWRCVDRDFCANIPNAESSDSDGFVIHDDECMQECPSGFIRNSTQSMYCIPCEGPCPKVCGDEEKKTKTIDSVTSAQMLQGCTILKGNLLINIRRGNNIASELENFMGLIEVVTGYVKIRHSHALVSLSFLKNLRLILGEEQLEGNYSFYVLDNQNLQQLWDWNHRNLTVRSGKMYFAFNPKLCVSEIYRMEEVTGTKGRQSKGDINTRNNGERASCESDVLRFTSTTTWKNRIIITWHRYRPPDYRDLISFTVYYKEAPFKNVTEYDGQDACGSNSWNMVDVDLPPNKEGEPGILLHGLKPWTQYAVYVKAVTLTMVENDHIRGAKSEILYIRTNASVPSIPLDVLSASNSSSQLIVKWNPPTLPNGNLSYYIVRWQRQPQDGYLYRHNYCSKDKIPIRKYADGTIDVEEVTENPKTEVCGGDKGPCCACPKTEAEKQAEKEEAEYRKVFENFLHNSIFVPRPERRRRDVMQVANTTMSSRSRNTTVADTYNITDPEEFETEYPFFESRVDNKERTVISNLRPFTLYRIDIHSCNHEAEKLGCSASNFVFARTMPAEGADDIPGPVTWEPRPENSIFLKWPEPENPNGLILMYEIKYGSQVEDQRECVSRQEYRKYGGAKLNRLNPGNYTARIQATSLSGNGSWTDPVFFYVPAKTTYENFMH

Binder	HalfLife (decay of cell-surface bound antibody on MCF-7 at 37°C) [1]	binding result [2]	EC50 [3]	binding result [4]	% internalisation [5]	ΔMFI [5]	MFI [6]	EC50 [7]	% remaining rh IGF1R [8]	MFI 37°C (internalisation assay, MCF7) [8]	Δ (MFI 4°C - MFI 37°C) [8]	MFI 4°C [9]	binding result [10]	hIGF-1R phosphorylation in response to IGF-1 (western blot, MCF-7) [11]	D.O 450 nm [12]	MFI [13]	binding result [14]
m208F2 (antibody, V domains shown, murine mAb, hybridoma CNCM I-4757, group G2; also called murine 208F2) VH: QVQLQQSGPELVKPGASVKMSCKASGYTFTSYYIYWVKQRPGQGLEWLGWIWPGDGSTKYNEKFKDKTTLTADKSSNTAYMFLSSLTSEDSAVYFCASPMITPNYAMDYWGQGASVTVSS VL: DIQMTQTTSSLSASLGDRVTISCRASQDISKYLNWYQQQPDGTIKLLIYYTSRLHSGVPSRFSGRGSGTDYSLTISNVEQEDIATYFCQQGSTLPYTFGGGTKLEIK	11.1 min (unit from p-0380; none on the sheet)	no binding	0.758 nM	no binding	74%	53 MFI	2200 MFI	0.526 nM	27%	94 MFI	261 MFI	355 MFI	no binding (tested: log [M] about -6.5 (about 3e-7 M))	> 80%	0.099 D.O 450 nm	–	–
m213B10 (antibody, V domains shown, murine mAb, hybridoma CNCM I-4774, group G2) VH: QVQLQQSGSELVKPGASVKMSCKASGYTFTSYYIHWVKQRPGQGLEWIGWIWPGDGSTKYNERFKGKTTLTADKSSSTAYMFLSSLTSEDSAVYFCASPMITPNYAMDYWGQGASVTVSS VL: DIQMTQTTSSLSASLGDRVTISCRASQDISKYLNWYQQQPDGTIKLLIYYTSRLHSGVPSRFSGRGSGTDYSLTITNLEQEDIATYFCQQGSALPYTFGGGTKLEIK	12.8 min (unit from p-0380; none on the sheet)	no binding	–	no binding	74%	84 MFI	2060 MFI	–	30%	115 MFI	271 MFI	386 MFI	–	> 80%	0.127 D.O 450 nm	122 MFI	no binding (tested: log [M] about -6.5 (about 3e-7 M))
m214F8 (antibody, V domains shown, murine mAb, hybridoma CNCM I-4775, group G2) VH: QVQLQQSGSELVKPGASVKLSCKASGYTFTSYYIHWVKQRPGQGLEWIGWIWPGDGSTKYNERFKGKTTLTADKSSSTAYMFLSSLTSEDSAVYFCASPMITPNYAMDYWGQGASVTVSS VL: DIQMTQTTSSLSASLGDRVTFSCRASQDISKYLNWYQQQPDGTIKLLIYYTSRLHSGVPSRFSGRGSGTDYSLTITNLEQEDIATYFCQQGSALPYTFGGGTKLEIK	16.8 min (unit from p-0380; none on the sheet)	no binding	–	no binding	71%	76 MFI	2140 MFI	–	29%	111 MFI	275 MFI	386 MFI	–	> 80%	0.102 D.O 450 nm	132 MFI	no binding (tested: log [M] about -6.5 (about 3e-7 M))
